Data taken from the supplement of paper PMC6757056.
± gives the standard deviation of the averaged measurements.

B1: library; a variant is named by its letters at N, in order (parent)
chain: GCUGUCACCGGUGCUUGGUACGUUAUAUUCAGCCGGUCUGAUGAGUCUNNNNNNAGACGAAACAGC

What was measured:
(6R,S)-folinic acid [1] = variants of: B1; experiment: normalized RNA/DNA level without ligand (relative to sTRSVctl = 100) (log10 (% of sTRSVctl)); HEK293T overexpressing SLC46A1; higher = less ribozyme self-cleavage, higher mRNA level; details: without (6R,S)-folinic acid; ligand present: no
Outline: (§1)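 Library plasmids carrying ribozyme switches linked to mCherry, or to eGFP in some ligand experiments, were transfected into HEK293T at 4 µg per 6-well well, with any ligand added 1 h earlier. Seventy-two hours on, total RNA was extracted with EDTA and reverse-transcribed, amplified, barcoded and sequenced. RNA level was RNA over DNA reads normalized to a spiked-in non-cleaving sequence or to the top sequences, then scaled and log-transformed. The top set was 25 sequences, the transform was ×100 and log10, and sequences needed ≥100 DNA reads.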

(6R,S)-folinic acid [2] = variants of: B1; experiment: normalized RNA/DNA level with ligand (relative to sTRSVctl = 100) (log10 (% of sTRSVctl)); HEK293T overexpressing SLC46A1; ligand concentration (+) RNA-Seq: 6 mM; higher = less ribozyme self-cleavage, higher mRNA level; details: with (6R,S)-folinic acid; ligand present: yes
Outline: as §1

Row | Variant | normalized RNA/DNA level without ligand (log10) ((6R,S)-folinic acid [1]) | normalized RNA/DNA level with ligand (log10) ((6R,S)-folinic acid [2])
1 | GCUGUCACCGGUGCUUGGUACGUUAUAUUCAGCCGGUCUGAUGAGUCUCUGGACAGACGAAACAGC | 1.9905 ± 0.0006 | 2 ± 0.038
2 | GCUGUCACCGGUGCUUGGUACGUUAUAUUCAGCCGGUCUGAUGAGUCUCUGGAGAGACGAAACAGC | 1.883 ± 0.01 | 1.99 ± 0.029
3 | GCUGUCACCGGUGCUUGGUACGUUAUAUUCAGCCGGUCUGAUGAGUCUAUGGCCAGACGAAACAGC | 2.063 ± 0.0035 | 2.04 ± 0.05
4 | GCUGUCACCGGUGCUUGGUACGUUAUAUUCAGCCGGUCUGAUGAGUCUAUGGCAAGACGAAACAGC | 1.9865 ± 2.8e-05 | 2 ± 0.046
5 | GCUGUCACCGGUGCUUGGUACGUUAUAUUCAGCCGGUCUGAUGAGUCUGUGCUUAGACGAAACAGC | 2.037 ± 0.0067 | 2.039 ± 0.015
6 | GCUGUCACCGGUGCUUGGUACGUUAUAUUCAGCCGGUCUGAUGAGUCUAUGGAUAGACGAAACAGC | 1.889 ± 0.0038 | 2.01 ± 0.033
7 | GCUGUCACCGGUGCUUGGUACGUUAUAUUCAGCCGGUCUGAUGAGUCUUUGCUGAGACGAAACAGC | 1.978 ± 0.004 | 2.01 ± 0.05
8 | GCUGUCACCGGUGCUUGGUACGUUAUAUUCAGCCGGUCUGAUGAGUCUUUGCUUAGACGAAACAGC | 2.016 ± 0.013 | 2.04 ± 0.04
9 | GCUGUCACCGGUGCUUGGUACGUUAUAUUCAGCCGGUCUGAUGAGUCUCUGCUGAGACGAAACAGC | 2.044 ± 0.0052 | 2.03 ± 0.041
10 | GCUGUCACCGGUGCUUGGUACGUUAUAUUCAGCCGGUCUGAUGAGUCUCUGCUUAGACGAAACAGC | 2.046 ± 0.013 | 2.04 ± 0.03
11 | GCUGUCACCGGUGCUUGGUACGUUAUAUUCAGCCGGUCUGAUGAGUCUAUGCUUAGACGAAACAGC | 2.006 ± 0.018 | 2.037 ± 0.014
12 | GCUGUCACCGGUGCUUGGUACGUUAUAUUCAGCCGGUCUGAUGAGUCUGUGGAUAGACGAAACAGC | 1.9394 ± 0.0013 | 2.01 ± 0.035
13 | GCUGUCACCGGUGCUUGGUACGUUAUAUUCAGCCGGUCUGAUGAGUCUGUGGAGAGACGAAACAGC | 1.86 ± 0.027 | 2 ± 0.041
14 | GCUGUCACCGGUGCUUGGUACGUUAUAUUCAGCCGGUCUGAUGAGUCUGUGGAAAGACGAAACAGC | 1.915 ± 0.0022 | 2.01 ± 0.048
15 | GCUGUCACCGGUGCUUGGUACGUUAUAUUCAGCCGGUCUGAUGAGUCUCUGGCCAGACGAAACAGC | 2.079 ± 0.011 | 2.03 ± 0.032
16 | GCUGUCACCGGUGCUUGGUACGUUAUAUUCAGCCGGUCUGAUGAGUCUCUGGCGAGACGAAACAGC | 1.99 ± 0.026 | 2.03 ± 0.037
17 | GCUGUCACCGGUGCUUGGUACGUUAUAUUCAGCCGGUCUGAUGAGUCUCUGGCAAGACGAAACAGC | 1.999 ± 0.0069 | 1.98 ± 0.042
18 | GCUGUCACCGGUGCUUGGUACGUUAUAUUCAGCCGGUCUGAUGAGUCUUUGGACAGACGAAACAGC | 1.972 ± 0.015 | 1.98 ± 0.032
19 | GCUGUCACCGGUGCUUGGUACGUUAUAUUCAGCCGGUCUGAUGAGUCUUUGGAUAGACGAAACAGC | 1.971 ± 0.012 | 2.022 ± 0.012
20 | GCUGUCACCGGUGCUUGGUACGUUAUAUUCAGCCGGUCUGAUGAGUCUUUGGCCAGACGAAACAGC | 2.046 ± 0.019 | 2.03 ± 0.05
21 | GCUGUCACCGGUGCUUGGUACGUUAUAUUCAGCCGGUCUGAUGAGUCUUUGGCAAGACGAAACAGC | 2.013 ± 0.011 | 2.06 ± 0.035
